For the test, the target named is T1, Wild-type human ABCG2 with an N-terminal GFP tag (human, UniProt Q9UNQ0).
T1 construct: ABCG2, human, wild type; also called GFP-ABCG2; WT; not shown: GFP, N-terminal, kept
In words: flow cytometry on cells; 5D3 antibody shift assay: stable GFP-ABCG2 HEK293F cells, 1 ug/mL 5D3 in PBS with 0.5% BSA, 37 °C 45 min, with or without MXN, SN38, imatinib or Ko143; goat-anti-mouse IgG-PE; gated on high GFP. Conditions: one partner purified. Background: Flow cytometry measures light scatter and fluorescence of single cells or particles in a stream.

T1 sequence (Q9UNQ0 whole entry): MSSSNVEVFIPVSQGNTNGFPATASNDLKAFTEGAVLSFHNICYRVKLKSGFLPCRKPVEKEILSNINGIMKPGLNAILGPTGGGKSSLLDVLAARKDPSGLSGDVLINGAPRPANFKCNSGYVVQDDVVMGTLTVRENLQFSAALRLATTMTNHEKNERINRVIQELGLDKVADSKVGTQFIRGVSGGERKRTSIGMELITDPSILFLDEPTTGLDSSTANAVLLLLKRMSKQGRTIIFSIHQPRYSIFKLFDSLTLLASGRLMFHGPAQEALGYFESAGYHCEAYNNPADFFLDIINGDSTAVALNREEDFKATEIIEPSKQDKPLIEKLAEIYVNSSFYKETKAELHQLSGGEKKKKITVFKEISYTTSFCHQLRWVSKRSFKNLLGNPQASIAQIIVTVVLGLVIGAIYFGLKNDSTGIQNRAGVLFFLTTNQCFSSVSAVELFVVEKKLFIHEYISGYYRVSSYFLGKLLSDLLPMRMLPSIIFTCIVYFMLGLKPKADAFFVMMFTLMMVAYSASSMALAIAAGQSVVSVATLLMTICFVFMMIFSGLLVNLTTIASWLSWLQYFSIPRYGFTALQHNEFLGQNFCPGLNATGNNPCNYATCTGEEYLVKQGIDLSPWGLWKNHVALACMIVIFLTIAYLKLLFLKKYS

B1: 5D3 antibody (antibody, V domains shown)
VH: QVQLQESGPGLVKPSQSLSLTCTVTGFSITSDYAWNWIRQFPGKKLEWMGYINFDGGTTYNPSLRGRISITRDTSKNQFFLQLRSVTPEDTATYYCATFYGAKGTLDYWGQGTSVTVSS
VL: DIVLTQSPSSFSVSLGDRVTISCKASGYILNRLAWYQQKPGNAPRLLISGATSLETGFPSRFSGTGSGKDYTLSISSLQTEDVGTYYCQQYWSTPWTFGGGTKLEIR
notes: the PDB entry holds the Fab only; also called conformation specific 5D3 antibody
As to B1, the binding result is on record as “binds”.

These data come from paper PMC7210939, “ABCG2 transports anticancer drugs via a closed-to-open switch” (Nature Communications, 2020).
